Here are results for 1 molecule from patent US20220332804A1 (CSL INNOVATION, published 2022).

Numbering of substitutions follows the chain as printed.

Assay in all cases: SPR, antibody captured, C2 as analyte;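 further: biacore at 37 °C, anti-C2 mAbs held by immobilised goat anti-human IgG, C2 alanine or serine mutants injected, double-referenced sensorgrams fitted to a 1:1 kinetic or steady-state model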
Background: In SPR one partner is held on a chip, and binding of the other changes the refractive index at the surface.

The target of one assay is T1, human C2 I272A (human, UniProt P06681 21-752).
T1 sequence: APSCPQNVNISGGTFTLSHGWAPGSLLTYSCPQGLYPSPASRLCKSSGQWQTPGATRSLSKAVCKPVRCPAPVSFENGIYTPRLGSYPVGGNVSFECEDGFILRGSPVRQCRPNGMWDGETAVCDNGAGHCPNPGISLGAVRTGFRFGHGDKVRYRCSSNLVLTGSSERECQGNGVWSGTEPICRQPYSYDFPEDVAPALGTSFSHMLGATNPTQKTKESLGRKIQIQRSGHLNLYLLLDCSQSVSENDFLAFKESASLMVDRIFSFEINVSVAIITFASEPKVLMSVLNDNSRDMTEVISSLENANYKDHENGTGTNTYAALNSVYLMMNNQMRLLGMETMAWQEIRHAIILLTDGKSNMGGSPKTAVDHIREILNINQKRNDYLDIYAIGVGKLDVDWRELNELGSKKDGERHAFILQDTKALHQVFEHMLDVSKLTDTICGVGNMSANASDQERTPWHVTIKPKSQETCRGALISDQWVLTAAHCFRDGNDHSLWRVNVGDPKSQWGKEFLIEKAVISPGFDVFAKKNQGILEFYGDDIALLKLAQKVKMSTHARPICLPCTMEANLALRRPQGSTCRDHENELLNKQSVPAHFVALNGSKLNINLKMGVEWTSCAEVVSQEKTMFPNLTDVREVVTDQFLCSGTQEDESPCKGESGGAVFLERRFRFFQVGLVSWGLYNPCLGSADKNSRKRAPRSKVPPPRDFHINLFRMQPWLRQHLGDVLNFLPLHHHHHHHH

In the next assay the target is T2, human C2 M452A (human, UniProt P06681 21-752).
T2 sequence: T1 sequence with A252I, M432A

A further assay deals with T3, human C2 K457A (human, UniProt P06681 21-752).
T3 sequence: T1 sequence with A252I, K437A

A further assay concerns the target T4, human C2 E686A (human, UniProt P06681 21-752).
T4 sequence: T1 sequence with A252I, E666A

B1: RF16-242 (antibody, human IgG4 S228P, lambda, V domains shown)
VH: EVQLLQSGAEVKKPGESLKISCKGSGYSFTSYWIGWVRQMPGKGLEWMGIIYPGDSDTRYSPSFQGQVTISADKSISTAYLQWSSLKASDTAMYYCARRGHYGDYFDYWGQGTLVTVSS
VL: SYELTQPPSVSVSPGQTARITCSGDALPKKYAYWYHQKSGQAPVLVIYEDRRRPSEIPERFSGSSSGTMATLTITGAQVEDEGVYFCYSRDRAGNQRVFGGGTQLTVLG
notes: pH-dependent anti-C2 antibody from a phage display library
As usually defined, the Kd is a measure of binding affinity in units of concentration. A low value points to a tighter complex. Regarding B1, the Kd in the assay with human C2 I272A came to 10.3 nM; with human C2 M452A, 5.3 nM; with human C2 K457A, 233 nM; with human C2 E686A, 32.6 nM.
